5 molecules from US20190276542A1 (QILU PUGET SOUND BIOTHERAPEUTICS, published 2019) can be followed below.

Assay [1] addresses T1, human PD1 expressed on a cell surface (human, UniProt Q15116 25-288).
T1 construct: whole, on cells; also called hPD1
The assay can be described thus: flow cytometry on OKT3-activated human T cells, CD4- cells. The procedure:
(§1) The following experiment tested whether the selected anti-hPD1 antibodies can bind to native PD1 expressed on the surface of activated T cells. Human PBMCs were pre-activated with OKT3 (an anti-CD3 antibody) at a concentration of 1 μg/ml. After three days, the PBMCs, which were mostly activated T cells at this time, were distributed into a 96 well microtiter plate using 0.1×10⁶ cells/well. […] The antibody bound to CD4⁺ T cells and CD4⁻ T cells (which were predominately CD8⁺ T cells) was detected using anti-hlgG-FITC and an anti-CD4 antibody labeled with allophycocyanin (anti-CD4-APC).
(§2) The samples were analyzed by flow cytometry (FACScalibur, BD), and binding was reported as an MFI. EC₅₀'s for binding were calculated using GraphPad Prism software.
(In general: Flow cytometry measures light scatter and fluorescence of single cells or particles in a stream.)

In assay [2] the target is T1, human PD1 expressed on a cell surface. As to the kind of experiment: flow cytometry on OKT3-activated human T cells, CD4+ cells. The method, then:
as §1, §2

T1 sequence (Q15116 25-288): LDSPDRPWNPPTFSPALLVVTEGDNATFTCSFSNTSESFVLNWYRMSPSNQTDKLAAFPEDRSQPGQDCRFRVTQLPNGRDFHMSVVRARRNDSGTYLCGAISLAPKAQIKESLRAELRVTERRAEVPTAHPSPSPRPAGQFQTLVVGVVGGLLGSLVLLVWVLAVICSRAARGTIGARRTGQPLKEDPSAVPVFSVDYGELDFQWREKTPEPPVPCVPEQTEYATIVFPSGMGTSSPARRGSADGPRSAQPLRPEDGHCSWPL

B1: anti-hPD1 antibody #13 (antibody, human IgG4, V domains shown)
VH: QVQLVQSGAEVKKPGASVKVSCKASGYTFTSYWIHWVRQAPGQGLEWMGEIDPYDSYTNYNQKFKGRVTMTVDKSTNTVYMELSSLTSEDTAVYYCARPGLTYGGMDFWGQGTLVTVSS
VL: DIQMTQSPSSLSASVGDRVTITCKSSQSLLNSGNQKNYLAWYQQKPGKPPKLLIYGASTRDSGVPAKFSGSGSGTDFTLTISSLQPEDVATYYCQNDHYYPYTFGGGTKVEIK
notes: also called Anti-hPD1 #13
By EC50 is commonly meant the concentration at which the effect is half-maximal. Low values mean higher potency in that assay, high ones lower potency in that assay. In the case of B1, the EC50 in assay [1] came to 1.46 nM; in assay [2], 0.998 nM.

B2: anti-hPD1 antibody #11 (antibody, human IgG4, V domains shown)
VH: QVQLVQSGAEVKKPGASVKVSCKASGYTFTSYWIHWVRQAPGQGLEWMGEIDPSDSYTNYNQKFKGRVTMTGDTSTNTVYMELSSLTSEDTAVYYCARPGYTYGGMDFWGQGTLVTVSS
VL: DIVMTQSPDSLAVSLGERATISCRSSQSLFISGNQKNYLAWYQQKPGQPPKLLIYGASTRDSGVPDRFSGSGSGTDFTLTISSLQAEDVAVYYCQNNHYYPYTFGGGTKVEIK
notes: also called Anti-hPD1 #11
Regarding B2, the results for the EC50 in assay [1] and in assay [2] were 24.7 nM and 33.7 nM, respectively.

B3: anti-hPD1 antibody #12 (antibody, human IgG4, V domains shown)
VH: QVQLVQSGAEVKKPGASVKVSCKASGYTFTNYWMHWVRQAPGQGLEWMGEIDPFDSYTNYNQKFKGRVTMTIDTSTNTVYMELSSLRSEDTAVYYCARPGFTYGGMDFWGQGTLVTVSS
VL: DIVMTQSPDSLAVSLGERATISCRSSQSLLISGNQKNYLAWYQQKPGQPPKLLIYGASTRDSGVPDRFSGSGSGTDFTLTISSLQAEDVAVYYCQNNHYYPYTFGGGTKVEIK
notes: also called Anti-hPD1 #12
Consider B3, for which the EC50 in assay [1] is 1.16 nM; in assay [2], 0.849 nM.

B4: anti-hPD1 antibody #15 (antibody, human IgG4, V domains shown)
VH: QVQLVQSGAEVKKPGASVKVSCKASGYTFTNYWMHWVRQAPGQGLEWMGEIDPYDSYTNYNQKFKGRVTMTRDTSTNTVYMELSSLRSEDTAVYYCARPGLTYGGMDFWGQGTLVTVSS
VL: DIQMTQSPSSLSASVGDRVTITCRSSQSLFNSGNQKNYLAWYQQKPGKPPKLLIYGASTRESGVPYRFSGSGSGTDFTLTISSLQPEDVATYYCQNDHYYPYTFGGGTKVEIK
notes: also called Anti-hPD1 #15
In the case of B4, the figures for the EC50 in assay [1] and in assay [2] were 0.627 nM and 0.72 nM, respectively.

B5: anti-hPD1 antibody #8 (antibody, human IgG4, V domains shown)
VH: QVQLVQSGAEVKKPGASVKVSCKASGYTFTNYWIHWVRQAPGQGLEWMGEIDPYDSYTNYNQKFKGRVTMTIDTSTSTVYMELSSLRSEDTAVYYCARPGNTYGGMDFWGQGTLVTVSS
VL: DIVMTQSPDSLAVSLGERATINCKSSQSLFISGNQKNYLAWYQQKPGQPPKLLIYGASTRDSGVPDRFSGSGSGTDFTLTISSLQAEDVAVYYCQNNHYYPYTFGGGTKVEIK
notes: also called Anti-hPD1 #8
As to B5, the EC50 came out at 0.904 nM in assay [1] and 0.647 nM in assay [2].
